Experimental data as given in patent publication US20110301228.

Target: native rat tail collagen type I (BD Biosciences), P02454
Sequence (P02454 152-1207, chain 1 of 2): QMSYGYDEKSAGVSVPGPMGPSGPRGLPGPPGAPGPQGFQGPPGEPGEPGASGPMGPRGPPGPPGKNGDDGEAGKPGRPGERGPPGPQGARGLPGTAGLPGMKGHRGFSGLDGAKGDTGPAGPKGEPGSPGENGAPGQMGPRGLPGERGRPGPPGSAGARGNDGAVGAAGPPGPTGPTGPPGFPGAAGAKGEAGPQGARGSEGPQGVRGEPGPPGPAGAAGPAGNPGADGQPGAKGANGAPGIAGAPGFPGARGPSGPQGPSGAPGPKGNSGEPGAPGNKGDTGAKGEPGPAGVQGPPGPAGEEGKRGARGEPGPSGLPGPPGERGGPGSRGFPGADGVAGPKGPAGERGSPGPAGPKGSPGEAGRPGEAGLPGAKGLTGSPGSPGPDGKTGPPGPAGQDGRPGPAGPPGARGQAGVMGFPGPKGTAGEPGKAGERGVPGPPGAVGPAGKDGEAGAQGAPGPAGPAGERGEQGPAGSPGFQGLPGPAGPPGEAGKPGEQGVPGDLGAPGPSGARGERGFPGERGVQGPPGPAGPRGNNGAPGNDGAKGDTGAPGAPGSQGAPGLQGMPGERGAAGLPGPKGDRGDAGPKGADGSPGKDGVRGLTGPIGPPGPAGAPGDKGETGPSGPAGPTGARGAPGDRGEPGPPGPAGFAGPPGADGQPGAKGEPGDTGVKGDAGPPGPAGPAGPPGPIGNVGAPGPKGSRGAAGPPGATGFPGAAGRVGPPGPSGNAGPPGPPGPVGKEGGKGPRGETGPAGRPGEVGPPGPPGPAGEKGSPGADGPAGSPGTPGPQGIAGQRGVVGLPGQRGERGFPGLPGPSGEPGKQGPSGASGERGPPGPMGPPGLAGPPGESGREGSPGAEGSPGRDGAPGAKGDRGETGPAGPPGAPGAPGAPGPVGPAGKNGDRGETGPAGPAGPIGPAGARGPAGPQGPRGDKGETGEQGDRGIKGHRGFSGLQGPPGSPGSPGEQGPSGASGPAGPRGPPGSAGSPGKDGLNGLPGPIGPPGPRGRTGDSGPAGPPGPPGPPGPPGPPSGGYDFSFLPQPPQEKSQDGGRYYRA
Sequence (chain, as listed by the source, chain 2 of 2): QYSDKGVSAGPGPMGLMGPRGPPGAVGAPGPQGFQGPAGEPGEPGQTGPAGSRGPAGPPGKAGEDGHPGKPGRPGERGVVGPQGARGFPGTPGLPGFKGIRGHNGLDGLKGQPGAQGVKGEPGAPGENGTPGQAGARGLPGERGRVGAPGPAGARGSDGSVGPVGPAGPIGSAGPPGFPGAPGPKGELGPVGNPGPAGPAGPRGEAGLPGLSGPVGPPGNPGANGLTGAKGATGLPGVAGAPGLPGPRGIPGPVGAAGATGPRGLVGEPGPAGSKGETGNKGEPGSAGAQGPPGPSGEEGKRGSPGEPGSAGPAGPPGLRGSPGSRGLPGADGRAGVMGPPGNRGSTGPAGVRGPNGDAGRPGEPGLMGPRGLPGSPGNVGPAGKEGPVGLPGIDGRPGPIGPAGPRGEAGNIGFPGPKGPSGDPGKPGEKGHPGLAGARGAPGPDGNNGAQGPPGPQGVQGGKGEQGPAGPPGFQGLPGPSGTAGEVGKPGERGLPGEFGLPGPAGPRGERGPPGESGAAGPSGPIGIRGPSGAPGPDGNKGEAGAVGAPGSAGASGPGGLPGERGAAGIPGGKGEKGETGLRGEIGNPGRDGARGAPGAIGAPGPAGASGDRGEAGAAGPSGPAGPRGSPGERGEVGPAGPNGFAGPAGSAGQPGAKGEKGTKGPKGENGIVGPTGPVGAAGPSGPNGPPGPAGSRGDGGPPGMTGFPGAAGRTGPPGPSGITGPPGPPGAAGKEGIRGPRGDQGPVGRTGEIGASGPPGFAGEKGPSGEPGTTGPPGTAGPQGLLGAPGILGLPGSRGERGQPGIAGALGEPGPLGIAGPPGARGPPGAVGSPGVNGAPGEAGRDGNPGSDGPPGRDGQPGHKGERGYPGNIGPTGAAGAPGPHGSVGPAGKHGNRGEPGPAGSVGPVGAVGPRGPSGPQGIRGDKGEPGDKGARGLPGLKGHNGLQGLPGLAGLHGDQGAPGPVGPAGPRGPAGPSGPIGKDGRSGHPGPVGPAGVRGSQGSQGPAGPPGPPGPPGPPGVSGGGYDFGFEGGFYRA

B1: recombinant human MMP1 (wild-type), secreted by AdhGRE.MMP1-infected HTM cells and activated with APMA (active form, 41 kDa) (protein)
chain: FVLTEGNPRWEQTHLTYRIENYTPDLPRADVDHAIEKAFQLWSNVTPLTFTKVSEGQADIMISFVRGDHRDNSPFDGPGGNLAHAFQPGPGIGGDAHFDEDERWTNNFREYNLHRVAAHELGHSLGLSHSTDIGALMYPSYTFSGDVQLAQDDIDGIQAIYGRSQNPVQPIGPQTPKACDSKLTFDAITTIRGEVMFFKDRFYMRTNPFYPEVELNFISVFWPQLPNGLEAAYEFADRDEVRFFKGNKYWAVQGQNVLHGYPKDIYSSFGFPRTVKHIDAALSEENTGKTYFFVANKYWRYDEYKRSMDPGYPKMIAHDFPGIGHKVDAVFMKDGFFYFFHGTRQYKFDPKTKRILTLQKANSWFNCRKN
digestion of native rat tail collagen type I (PAGE gel, Coomassie stain): digested native collagen type I into smaller fragments
